From paper PMC7486785 (Proceedings of the National Academy of Sciences of the …, 2020)

T1: Duck egg lysozyme (DEL), D65N + N103D double mutant of the DEL-II isoform (Anas platyrhynchos, DEL-II double mutant, strain)
T1 construct: duck egg lysozyme, DEL-II isoform, D65N + N103D double mutant; differs from HEL3X at 25 amino acids; source: Pichia pastoris, secreted, purified from culture supernatant (ion exchange)
T1 chain: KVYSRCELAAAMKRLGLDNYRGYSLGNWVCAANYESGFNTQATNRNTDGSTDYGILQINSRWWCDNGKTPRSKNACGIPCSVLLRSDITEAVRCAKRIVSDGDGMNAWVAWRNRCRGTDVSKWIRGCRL


Each molecule was assayed against VH substitutions L4F, S31N, Y33H, and S56N (assay: BLI; BLItz; biotinylated Fab loaded on streptavidin biosensors, lysozyme proteins in solution at a range of molar concentrations; PBS (sensors rehydrated in PBS with 0.1% BSA); global fit, 1:1 Fab-lysozyme interaction; affinities printed as 1/KD). Conditions: not given.

Sequence of HEL^3X self-lysozyme (P00698 other isoform, or with tags, fused parts or gaps): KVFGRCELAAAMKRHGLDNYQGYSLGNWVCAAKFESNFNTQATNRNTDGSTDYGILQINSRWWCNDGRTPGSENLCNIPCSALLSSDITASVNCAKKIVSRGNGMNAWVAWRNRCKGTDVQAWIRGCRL

| fold decrease in affinity against Hy10 [fold] | Molecule |
| --- | --- |
| 3 to 39 | HEL^3X self-lysozyme (from UniProt P00698 19-147) (natural protein) |

Each molecule was assayed against Duck egg lysozyme (DEL) (assay: bio-layer interferometry). Conditions: parent: est. 2.5e7 M-1; read off a plot.

| Ka [M⁻¹] | Molecule |
| --- | --- |
| < 100000 | Hy10 Fab S52N |

Target: T1, Duck egg lysozyme (DEL), D65N + N103D …
Test: BLI; BLItz (ForteBio); biotinylated Hy10 Fab variant immobilised on streptavidin biosensors (rehydrated in PBS with 0.1% wt/vol BSA); soluble monomeric lysozyme antigen as analyte at a range of concentrations; global fit, 1:1 Fab-lysozyme interaction
Conditions: both partners purified

| Ka [M⁻¹] | Kd [nM] | Molecule |
| --- | --- | --- |
| 2.49e+07 | 40.1 | HyHEL10 (Hy10) Fab, WT founder (Fab, V domains shown, heavy chain of Hy10 Fab; light chain of Hy10 Fab; also called Hy10WT; source: Expi293, transient (pCEP4), purified (Talon resin, gel filtration)) VH: DVQLQESGPSLVKPSQTLSLTCSVTGDSITSDYWSWIRKFPGNRLEYMGYVSYSGSTYYNPSLKSRISITRDTSKNQYYLDLNSVTTEDTATYYCANWDGDYWGQGTLVTVSA VL: DIVLTQSPATLSVTPGNSVSLSCRASQSIGNNLHWYQQKSHESPRLLIKYASQSISGIPSRFSGSGSGTDFTLSINSVETEDFGMYFCQQSNSWPYTFGGGTKLEIK |
| 2.81e+08 | 3.56 | Hy10 Fab S52T/Y53F (Fab, V domains shown, as the heavy chain of Dm5 with the stated changes; as the light chain of Dm5; source: Expi293, transient (pCEP4), purified (Talon resin, gel filtration)) VH: DVQLQESGPSLVKPSQTLSLTCSVTGDSITSDYWSWIRKFPGNRLEYMGYVTFSGSTYYNPSLKSRISITRDTSKNQYYLDLNSVTTEDTATYYCANWDGDYWGQGTLVTVSA VL: DIVLTQSPATLSVTPGNSVSLSCRASQSIGNNLHWYQQKSHESPRLLIKYASQSISGIPSRFSGSGSGTDFTLSINSVETEDFGMYFCQQSNSWPYTFGGGTKLEIK |
| 1.2e+08 | 8.35 | Hy10 Fab Y53F (Fab, V domains shown, as the heavy chain of Dm5 with the stated changes; as the light chain of Dm5; source: Expi293, transient (pCEP4), purified (Talon resin, gel filtration)) VH: DVQLQESGPSLVKPSQTLSLTCSVTGDSITSDYWSWIRKFPGNRLEYMGYVSFSGSTYYNPSLKSRISITRDTSKNQYYLDLNSVTTEDTATYYCANWDGDYWGQGTLVTVSA VL: DIVLTQSPATLSVTPGNSVSLSCRASQSIGNNLHWYQQKSHESPRLLIKYASQSISGIPSRFSGSGSGTDFTLSINSVETEDFGMYFCQQSNSWPYTFGGGTKLEIK |
| 1.68e+06 | 594 | Hy10 Fab Y33H (Fab, V domains shown, as the heavy chain of Dm5 with the stated changes; as the light chain of Dm5; also called Hy10-Y33H; source: Expi293, transient (pCEP4), purified (Talon resin, gel filtration)) VH: DVQLQESGPSLVKPSQTLSLTCSVTGDSITSDHWSWIRKFPGNRLEYMGYVSYSGSTYYNPSLKSRISITRDTSKNQYYLDLNSVTTEDTATYYCANWDGDYWGQGTLVTVSA VL: DIVLTQSPATLSVTPGNSVSLSCRASQSIGNNLHWYQQKSHESPRLLIKYASQSISGIPSRFSGSGSGTDFTLSINSVETEDFGMYFCQQSNSWPYTFGGGTKLEIK |
| 3.73e+07 | 26.8 | Hy10 Fab Y53F/S56R (Fab, V domains shown, as the heavy chain of Dm5 with the stated changes; as the light chain of Dm5; source: Expi293, transient (pCEP4), purified (Talon resin, gel filtration)) VH: DVQLQESGPSLVKPSQTLSLTCSVTGDSITSDYWSWIRKFPGNRLEYMGYVSFSGRTYYNPSLKSRISITRDTSKNQYYLDLNSVTTEDTATYYCANWDGDYWGQGTLVTVSA VL: DIVLTQSPATLSVTPGNSVSLSCRASQSIGNNLHWYQQKSHESPRLLIKYASQSISGIPSRFSGSGSGTDFTLSINSVETEDFGMYFCQQSNSWPYTFGGGTKLEIK |

The next lines start with the molecule.

| Molecule | Ka [M⁻¹] | Kd [nM] |
| --- | --- | --- |
| Hy10 Fab I29F/S52T/Y58F (Fab, V domains shown, as the heavy chain of Dm5 with the stated changes; as the light chain of Dm5; source: Expi293, transient (pCEP4), purified (Talon resin, gel filtration)) VH: DVQLQESGPSLVKPSQTLSLTCSVTGDSFTSDYWSWIRKFPGNRLEYMGYVTYSGSTFYNPSLKSRISITRDTSKNQYYLDLNSVTTEDTATYYCANWDGDYWGQGTLVTVSA VL: DIVLTQSPATLSVTPGNSVSLSCRASQSIGNNLHWYQQKSHESPRLLIKYASQSISGIPSRFSGSGSGTDFTLSINSVETEDFGMYFCQQSNSWPYTFGGGTKLEIK | 5.92e+08 | 1.69 |
| Hy10 Fab I29F/S52T/Y53F/Y58F (Fab, V domains shown, as the heavy chain of Dm5 with the stated changes; as the light chain of Dm5; source: Expi293, transient (pCEP4), purified (Talon resin, gel filtration)) VH: DVQLQESGPSLVKPSQTLSLTCSVTGDSFTSDYWSWIRKFPGNRLEYMGYVTFSGSTFYNPSLKSRISITRDTSKNQYYLDLNSVTTEDTATYYCANWDGDYWGQGTLVTVSA VL: DIVLTQSPATLSVTPGNSVSLSCRASQSIGNNLHWYQQKSHESPRLLIKYASQSISGIPSRFSGSGSGTDFTLSINSVETEDFGMYFCQQSNSWPYTFGGGTKLEIK | 7.51e+09 | 0.133 |
| Hy10 Fab L4F (Fab, V domains shown, as the heavy chain of Dm5 with the stated changes; as the light chain of Dm5; source: Expi293, transient (pCEP4), purified (Talon resin, gel filtration)) VH: DVQFQESGPSLVKPSQTLSLTCSVTGDSITSDYWSWIRKFPGNRLEYMGYVSYSGSTYYNPSLKSRISITRDTSKNQYYLDLNSVTTEDTATYYCANWDGDYWGQGTLVTVSA VL: DIVLTQSPATLSVTPGNSVSLSCRASQSIGNNLHWYQQKSHESPRLLIKYASQSISGIPSRFSGSGSGTDFTLSINSVETEDFGMYFCQQSNSWPYTFGGGTKLEIK | 3.25e+06 | 308 |
